Source: patent US7847064B2, “Methods and compositions for regulating gene expression in plant cells” (Donald Danforth Plant Science Center, priority 2004, dated 2010)
Entries after “also recorded” stand apart in the source; their conditions may differ.

B1: RF2a: rice bZIP transcription factor, SEQ ID NO:4 (protein)
chain: MNREKSPIPGDGGDGLPPQATRRAGPPAAAAAAEYDISRMPDFPTRNPGHRRAHSEILSLPEDLDLCAAGGGDGPSLSDENDEELFSMFLDVEKLNSTCGASSEAEAESSSAAAHGARPKHQHSLSMDESMSIKAEELVGASPGTEGMSSAEAKKAVSAVKLAELALVDPKRAKRIWANRQSAARSKERKMRYIAELERKVQTLQTEATTLSAQLALLQRDTSGLTTENSELKLRLQTMEQQVHLQDALNDTLKSEVQRLKVATGQMANGGGMMMNFGGMPHQFGGNQQMFQNNQAMQSMLAAHQLQQLQLHPQAQQQQVLHPQHQQQQPLHPLQAQQLQQAARDLKMKSPMGGQSQWGDGKSGSSGN
modifications: This sequence was artificially derived and/or created by the inventors.

Experiments:
[1] = test system: VGE receptor; test: Induction of RF2a expression in transgenic Arabidopsis (Western Blot); assay type: in vivo, Arabidopsis thaliana; details: 1:8000 dilution of Intrepid 2F; plants with E:GUS, 5G35Sm:RF2a, Cs:VGE
Source text: Induction of RF2a expression—RF2a expression was induced in the transgenic Arabidopsis plants described herein by application of a 1:8000 dilution of the pesticide Intrepid® 2F (Dow AgroSciences, Indianapolis, Ind.). The active ingredient in Intrepid® 2F pesticide is methoxyfenozide. […] Accordingly, the methoxyfenozide compound served as an expression-inducing ligand, which functioned to enhance expression of the RF2a-encoding sequence. Upon application of the methoxyfenozide compound, RF2a expression was induced, thereby allowing RF2a to interact with the Box II-containing E fragment, which was operably linked to the uidA sequence.
Western Blot analysis—To detect the expression of RF2a in select transgenic lines described above, either treated or untreated with Intrepid® 2F, 40 μg of protein of each sample was separated by 12% SDS-PAGE and blotted onto nitrocellulose membrane. The Arabidopsis lines analyzed by Western Blot included EGaV50, EGaV59, EGaV63, EGaV70, EGaV72, and E:GUS. Rabbit anti-RF2a antibodies were first applied to the nitrocellulose membrane, incubated, and washed. Next, anti-rabbit horseradish peroxidase-conjugated secondary antibodies were applied to the membrane, incubated, and washed. Finally, SuperSignal substrate (Pierce, Rockford, Ill.) was applied to the membrane, incubated, and washed.

[2] = test system: VGE receptor; test: Histochemical GUS staining of treated leaves of T1 transgenic Arabidopsis; assay type: in vivo, Arabidopsis thaliana; details: 67 T1 plants, 1:8000 dilution of Intrepid 2F on one leaf, two days, X-Gluc
Description: Analysis of GUS activity—The relative GUS activity in the transgenic Arabidopsis plants described herein was measured by histochemical analysis. In each of sixty-seven (67) T1 transgenic Arabidopsis plants carrying E:GUS, 5G35Sm:RF2a and Cs:VGE, the 1:8000 dilution of Intrepid® 2F described above was applied to one true leaf, while the other leaves in each plant remained untreated. Two-days following the application of the expression-inducing ligand, the treated leaf together with one untreated leaf from the same plant were detached and subjected to GUS staining.
More particularly, the plant leaf tissues mentioned above were submerged in stain solution containing 1 mM of X-Gluc in 100 mM sodium phosphate buffer (pH 7.0), 2 mM K3Fe(CN)6, 2 mM K4Fe(CN)6, 0.1% Triton X-100 and 20% methanol (Petruccelli et al. 2001). In order to evaluate GUS activity, several substrates are available. The most commonly used are 5-bromo-4-chloro-3-indolyl glucuronide (X-Gluc) and 4-methyl-umbelliferyl-glucuronide (MUG). […] For quantification purposes, MUG is preferred, because the umbelliferyl radical emits fluorescence under UV stimulation, thus providing better sensitivity and easy measurement by fluorometry. […]

[3] = test system: VGE receptor; test: Quantitative GUS activity (MUG) in T2 transgenic Arabidopsis; assay type: in vivo, Arabidopsis thaliana; details: twelve T2 lines, 1:8000 dilution of Intrepid 2F in hydroponic solution, three days
Description: Quantitative analysis of GUS activity in methoxyfenozide-treated plants was then conducted. T2 generation transgenic Arabidopsis plants from twelve T1 primary lines were selected on hygromycin selection medium. The lines are individually referred to herein as EGaV-3, EGaV-5, EGaV-17, EGaV-31, EGaV-50, EGaV-51, EGaV-56, EGaV-59, EGaV-63, EGaV-70, EGaV-72, and E:GUS. For each primary line, eighteen 14-day-old T2 plants were used. Nine plants, in three groups, were cultured in MS hydroponic solution containing a 1:8000 dilution of Intrepid 2F®. The remaining nine plants, in three groups, were left untreated and served as controls. After a three-day treatment period, the GUS activity in leaf tissue samples from each plant was quantified.
Each sample of leaf tissue was ground to a powder in liquid nitrogen. Total protein was extracted from each sample by adding 300 μl of extraction buffer. Protein concentration of each sample was quantified using a Dc Protein Assay Kit (Bio-Rad Laboratories, Hercules, Calif.). GUS activity of each sample was quantified using MUG as substrate and a fluorescence spectrometer (Molecular Devices, Sunnyvale, Calif.) (Petruccelli et al., 2001).

[4] = test system: Nicotiana tabacum cv. Xanthi NN; test: Phenotype of transgenic tobacco plants overexpressing RF2a or RF2a mutants; assay type: in vivo; details: CaMV 35S promoter driven, T1 generation, greenhouse
Source text: (Yin et al., 1997; Petruccelli et al., 2001). […] Fifteen or more independent transgenic tobacco lines were developed with the constructs described below through Agrobacterium-mediated transformation.
Plasmids for Agrobacterium-mediated transformation—The fusion genes described above relating to the plant expression constructs comprising RF2a deletion mutants were released from pMON999-derived plasmids using NotI (blunted) and cloned into the binary vector pGA-E::GUS (Petruccelli et al., 2001) using the blunt HindIII site (downstream of a CaMV 35S promoter sequence). The final plasmids were named pGA-E::GUS/P-35S::ΔP, pGA-E::GUS/P-35S::ΔQ, pGA-E::GUS/P-35S::ΔPΔA and pGA-E::GUS/P-35S::ΔPΔQ. A plasmid encoding full-length RF2a, p35S::RF2a, was also constructed using the methods described herein.
Tobacco transformation—the plasmids described above were introduced into Agrobacterium tumefaciens strain LBA4404 and used for tobacco transformation. Leaf discs from Nicotiana tabacum cv. Xanthi NN were transformed with the various plasmids following the protocol of Horsch et al. (1988). At least 15 independent transgenic lines were produced with each gene construct. Transgenic plants were self-fertilized, and T1 seeds were collected. The T1 seeds were germinated on Murashige and Skoog medium (Murashige and Skoog, 1962) with kanamycin (100 mg/L) selection, and Kan^r seedlings were grown in a greenhouse for observation.
The phenotype caused by 35S::RF2a-ΔPΔA was similar to, but less severe than, the phenotype caused by 35S::RF2a-3Δ. […] (FIG. 19(C)).

[5] = test system: E fragment of the RTBV promoter; test: Co-transfection of E::GUS with RF2a and/or RF2b constructs in BY-2 protoplasts; assay type: cell-based, tobacco
Source text: Nevertheless, the E fragment may be further stimulated by co-transfecting the BY-2 protoplasts with constructs that encode the RF2a and/or RF2b transcription factors. In this Example, the E fragment was activated in tobacco BY-2 protoplasts by co-transfection of E::GUS with CsVMV::RF2b, CaMV 35S::RF2a and CaMV 35S::RF2a/CsVMV::RF2b using methods well-known in the art.

[6] = test system: Box II, Box IIm1 and Box IIm2 elements; test: Surface Plasmon Resonance binding (BIAcore 2000)
Description: To compare the binding affinities of RF2a and RF2b with the Box II element and its mutants, real time Surface Plasmon Resonance (“SPR”) measurements were conducted using a BIAcore 2000 instrument. The binding affinities of RF2a and RF2b to these DNA targets were measured on chips on which biotin labeled-Box II, -Box IIm1 and -Box IIm2 elements were immobilized.
The association and de-association constants were determined using BIAevaluation 3.1 software—using 1:1 binding with a mass transfer model. […] Furthermore, the DNA binding behavior of RF2a and RF2b are quite different from each other. […] The differences in the affinity of RF2a to the Box II element and its mutants, however, are not as dramatic as the differences of RF2b, while the relative order of affinities to the different target elements is the same for both proteins (FIG. 8).

[7] = test system: transgenic rice and tobacco plants; details: Yin et al., 1997; Petruccelli et al., 2001; cited from earlier work

| Molecule | RF2a expression [1] | plants with constitutive GUS expression pattern in treated leaves [2] | induction of GUS expression in relation to untreated control plants, average [3] [fold] | phenotype of transgenic tobacco plants [4] | activation of the E fragment by over-expression [5] | DNA binding behavior (association and dissociation) ([6]; 1:1 binding with a mass transfer model) | binding affinities to the Box II, Box IIm1 and Box IIm2 elements ([6]; compared to RF2b, biotin labeled elements immobilized on chips) | appearance and reproduction of overexpressing plants [7] |
| --- | --- | --- | --- | --- | --- | --- | --- | --- |
| COc1cccc(C(=O)NN(C(=O)c2cc(C)cc(C)c2)C(C)(C)C)c1C [methoxyfenozide] | enhance RF2a expression; also recorded: presence of RF2a | approximately 70% | 2.1 | – | – | – | – | – |
| B1 | – | – | – | did not exhibit abnormal phenotypes | activated above a strong background expression | bind rapidly to the DNA target and slowly dissociates from the target | relatively higher binding affinities | normal in appearance and reproduction |
